A word on the stoichiometry N: it is the number of molecules, sites or subunits per partner or assembly.

B1: Hda2 (natural protein)
chain: MSRKNSKKLKVYYLPVTLTQFQKDLSEILISLHAKSFKASIIGEPQADAVNKPSGLPAGPETHPYPTLSQRQLTYIFDSNIRAIANHPSLLVDHYMPRQLLRMEPTESSIAGSHKFQVLNQLINSICFRDREGSPNEVIKCAIIAHSIKELDLLEGLILGKKFRTKRLSGTSLYNEKHKFPNLPTVDSTINKDGTPNSVSSTSSNSNSTSYTGYSKDDYDYSVKRNLKKRKINTDDWLFLATTKHLKHDQYLLANYDIDMIISFDPMLEVELPALQVLRNNANKDIPIIKLLVQNSPDHYLLDSEIKNSSVKSSHLSNNGHVDDSQEYEEIKSSLLYFLQARNAPVNNCEIDYIKLVKCCLEGKDCNNILPVLDLITLDEASKDSSDSGFWQPQLTKLQYSSTELPLWDGPLDIKTYQTELMHRAVIRLRDIQDEYAKGTVPLYEKRLNETQRQNQLDEIKNSVGLTFKKKQEVEKSINDSEKRLKHAMTESTKLQNKINHLLKNRQELENFNKLPSNTISSENHLEEGSALADKLKEYIDKNATLFNKLKELQQANAEKSKLNDELRSKYQIESSKAAESAQTLKILQESMKSLENEVNGPLTKFSTESLKKELERLQNDFQSLKARNKFLKNYITLMNRQYDLKNKNNVQVEKAAANGTRFRSTRSNTPNYT
B3: Hda1 (enzyme)
chain: MDSVMVKKEVLENPDHDLKRKLEENKEEENSLSTTSKSKRQVIVPVCMPKIHYSPLKTGLCYDVRMRYHAKIFTSYFEYIDPHPEDPRRIYRIYKILAENGLINDPTLSGVDDLGDLMLKIPVRAATSEEILEVHTKEHLEFIESTEKMSREELLKETEKGDSVYFNNDSYASARLPCGGAIEACKAVVEGRVKNSLAVVRPPGHHAEPQAAGGFCLFSNVAVAAKNILKNYPESVRRIMILDWDIHHGNGTQKSFYQDDQVLYVSLHRFEMGKYYPGTIQGQYDQTGEGKGEGFNCNITWPVGGVGDAEYMWAFEQVVMPMGREFKPDLVIISSGFDAADGDTIGQCHVTPSCYGHMTHMLKSLARGNLCVVLEGGYNLDAIARSALSVAKVLIGEPPDELPDPLSDPKPEVIEMIDKVIRLQSKYWNCFRRRHANSGCNFNEPINDSIISKNFPLQKAIRQQQQHYLSDEFNFVTLPLVSMDLPDNTVLCTPNISESNTIIIVVHDTSDIWAKRNVISGTIDLSSSVIIDNSLDFIKWGLDRKYGIIDVNIPLTLFEPDNYSGMITSQEVLIYLWDNYIKYFPSVAKIAFIGIGDSYSGIVHLLGHRDTRAVTKTVINFLGDKQLKPLVPLVDETLSEWYFKNSLIFSNNSHQCWKENESRKPRKKFGRVLRCDTDGLNNIIEERFEEATDFILDSFEEWSDEE

The target in data set [1] is HDAC protomer complex (Hda1_(2)-Hda2-Hda3 heterotetrameric complex) (S. cerevisiae) (UniProt P53973). Description: cryo-EM structure.
Data set [2] has as its target B3. The data set is described as follows: SEC-MALS. Background: In gel filtration, larger molecules generally elute earlier.
Data set [3] deals with B1. Description: cryo-EM structure.
Data set [4] addresses B3. Description: cryo-EM structure.
Data set [5] deals with the molecule itself. Description: SEC-MALS.

The molecule “HDAC protomer complex (Hda1_(2)-Hda2-Hda3 heterotetrameric complex) (from UniProt P53973;Q06629;Q06623)” gave a stoichiometry N in data set [1] of 2.

For the molecule B1, the binding result in data set [2] is “binds”.

B2: Hda3 (natural protein)
chain: MDLLRILDTKPIPTIVDATTLGISGNTSGDYWLPTTMSLYQKELTDQIVSLHYSDILRYFETSHYKEDVILESMKTMCLNGSLVATHPYLLIDHYMPKSLITRDVPAHLAENSGKFSVLRDLINLVQEYETETAIVCRPGRTMDLLEALLLGNKVHIKRYDGHSIKSKQKANDFSCTVHLFSSEGINFTKYPIKSKARFDMLICLDTTVDTSQKDIQYLLQYKRERKGLERYAPIVRLVAINSIDHCRLFFGKKFDKNSREYLENVTAAMVILRDRLGTLPPDLRPIYSQKLHYLVEWLENPTVPWPLPDIYPLKQYTSMDVERSLLTEVHFKKSDDQLEDAFSNCSKKRGRHGANKAASSTVAGIEDNITPSFYSTKRLKNDYYTNPLKQDMTQLTGITTADNSSNVNYHLSSGIITHKLIQSMGEVYMDICVQKQELDDYSCLDDLQNDHLKFFSNEDEKIIKEYETVLRTNNENLNRSHELEVENNLKFSQIETLEKDIETLKGSLMAQGETLSKLKDAFVKTDNVQDEIEKEERVSVSRDTEKKYMEQEIKRAVDAIRENEEETHKLNEKQNGLESELKLKFEKSEISTKELNEKIGFLKKELKLENDLNEELVGQLSKTMDNLENLTIPRVRTQNGNTKKKSRAKKPGNV
Take B2: the binding result in data set [3] and in data set [4] was “binds” throughout.

For the molecule B3, in data set [5], the “stoichiometry N” value worked out at 2.

(Values after PMC7793584 (Science Advances, 2021).)
